# Source: FireProtDB (doi:10.1074/jbc.m005861200)
# B1: Cytochrome c-551, P00099 (parent)
# chain: MKPYALLSLLATGTLLAQGAWAEDPEVLFKNKGCVACHAIDTKMVGPAYKDVAAKFAGQAGAEAELAQRIKNGSQGVWGPIPMPPNAVSDDEAQTLAKWVLSQK
# Variants of: B1
# Conditions: Pseudomonas aeruginosa (strain ATCC 15692 / DSM 22644 / CIP 104116 / JCM 14847 / LMG 12228 / 1C / PRS 101 / PAO1); pH 5; 25 °C; GdnHCl; DSC; Unknown; reversible: yes; structure 451C; whole UniProt chain shown
row,Variant,denaturant midpoint (higher = more stable) [M]
1,F29A V35M F56Y E65Y V100I,4.39

# Same assay, conditions: Pseudomonas aeruginosa (strain ATCC 15692 / DSM 22644 / CIP 104116 / JCM 14847 / LMG 12228 / 1C / PRS 101 / PAO1); pH 5; 47.3 °C; Thermal; DSC; Unknown; reversible: yes; structure 451C; whole UniProt chain shown
Variant,Tm [°C],"change of melting temperature, mutant - wild type (higher = more stable) [°C]",heat capacity change of unfolding [kcal/mol/K]
F29A V35M F56Y E65Y V100I,80.2,32.9,1.07

# Same assay, conditions: Pseudomonas aeruginosa (strain ATCC 15692 / DSM 22644 / CIP 104116 / JCM 14847 / LMG 12228 / 1C / PRS 101 / PAO1); pH 5; Thermal; DSC; Unknown; reversible: yes; structure 451C; whole UniProt chain shown
Variant,Tm [°C],"change of melting temperature, mutant - wild type (higher = more stable) [°C]",heat capacity change of unfolding [kcal/mol/K],unfolding enthalpy (calorimetric) [kcal/mol]
F29A V35M F56Y E65Y V100I,80.2,32.9,1.07,46
